IntAct's records for PubMed 18060821

B1: MAPK phosphothreonine lyase (Salmonella typhimurium), P0A2M9 (parent)
chain: MPINRPNLNLNIPPLNIVAAYDGAEIPSTNKHLKNNFNSLHNQMRKMPVSHFKEALDVPDYSGMRQSGFFAMSQGFQLNNHGYDVFIHARRESPQSQGKFAGDKFHISVLRDMVPQAFQALSGLLFSEDSPVDKWKVTDMEKVVQQARVSLGAQFTLYIKPDQENSQYSASFLHKTRQFIECLESRLSENGVISGQCPESDVHPENWKYLSYRNELRSGRDGGEMQRQALREEPFYRLMTE

Variants of: B1
Conditions: with mk07_human MAPK7, Q13164
Sequence of mk07_human MAPK7, Q13164 (Q13164 whole entry, looked up): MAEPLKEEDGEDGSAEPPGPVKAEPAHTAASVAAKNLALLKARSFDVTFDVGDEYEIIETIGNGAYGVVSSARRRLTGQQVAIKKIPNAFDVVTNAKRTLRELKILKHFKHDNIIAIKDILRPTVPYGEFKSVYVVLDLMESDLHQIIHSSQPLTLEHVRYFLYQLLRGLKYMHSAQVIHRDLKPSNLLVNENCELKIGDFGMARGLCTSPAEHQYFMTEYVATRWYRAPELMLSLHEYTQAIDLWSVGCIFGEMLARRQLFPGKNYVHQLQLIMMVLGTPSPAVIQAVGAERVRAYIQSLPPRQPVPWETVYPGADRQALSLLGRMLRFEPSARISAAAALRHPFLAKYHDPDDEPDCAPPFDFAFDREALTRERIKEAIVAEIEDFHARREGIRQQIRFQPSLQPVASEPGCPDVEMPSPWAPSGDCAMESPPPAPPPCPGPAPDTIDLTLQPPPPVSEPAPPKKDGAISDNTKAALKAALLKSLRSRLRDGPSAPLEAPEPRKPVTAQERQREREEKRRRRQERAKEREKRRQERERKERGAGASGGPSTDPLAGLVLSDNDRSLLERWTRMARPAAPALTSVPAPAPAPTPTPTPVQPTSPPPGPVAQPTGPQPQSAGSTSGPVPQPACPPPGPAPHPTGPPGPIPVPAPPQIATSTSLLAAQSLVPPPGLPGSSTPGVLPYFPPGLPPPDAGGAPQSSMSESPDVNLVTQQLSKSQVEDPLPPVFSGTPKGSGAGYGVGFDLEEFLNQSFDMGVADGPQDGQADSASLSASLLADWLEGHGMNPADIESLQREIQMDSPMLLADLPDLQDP

Variant | effect of a mutation on the interaction
H106A;K136A | disrupting interaction
K136A | causing an interaction

Variants of: B1
Conditions: with mk07_human MAPK7, Q13164
Remark: another data set of the same source

Variant | effect of a mutation on the interaction
K136A | with no effect
